In publication PMC8213764, “Human intelectin-1 (ITLN1) genetic variation and intestinal expression” (Scientific Reports, 2021):
Values joined by “and” are separate entries in the source; they are usually repeats but may differ in a detail not shown here. Equal values may be shown once.

Molecular target: the molecule itself
Assay: non-reducing SDS-PAGE immunoblot; human ileal lysates (150 mM NaCl, 1% Triton X-100, 0.5% sodium deoxycholate, 0.1% SDS, 50 mM Tris pH 8.0), heated at 95 °C for 30 min without 2-mercaptoethanol, gradient SDS-PAGE (4-20%), immunoblot; oligomers stable under denaturing conditions

B1: Human intelectin-1 (ITLN1) V109, from V109 homozygote (VV) ileal specimens (natural protein, human (endogenous in ileum), UniProt Q8WWA0 19-298, looked up)
chain: TDEANTYFKEWTCSSSPSLPRSCKEIKDECPSAFDGLYFLRTENGVIYQTFCDMTSGGGGWTLVASVHENDMRGKCTVGDRWSSQQGSKAVYPEGDGNWANYNTFGSAEAATSDDYKNPGYYDIQAKDLGIWHVPNKSPMQHWRNSSLLRYRTDTGFLQTLGHNLFGIYQKYPVKYGEGKCWTDNGPVIPVVYDFGDAQKTASYYSPYGQREFTAGFVQFRVFNNERAANALCAGMRVTGCNTEHHCIGGGGYFPEASPQQCGDFSGFDWSGYGTHVGYS
modifications: single glycosylation site at N163
notes: Human intelectin-1 (ITLN1) with valine at position 109 (rs2274907 A allele), endogenous in ileal mucosa; also called VV genotype; V109-ITLN1; source: endogenous, ileal specimens of V109 homozygote individuals, in lysate
- stoichiometry N: 3 and 6

B2: Human intelectin-1 (ITLN1) D109, from D109 homozygote (DD) ileal specimens (natural protein, human (endogenous in ileum), UniProt Q8WWA0 19-298, looked up)
chain: TDEANTYFKEWTCSSSPSLPRSCKEIKDECPSAFDGLYFLRTENGVIYQTFCDMTSGGGGWTLVASVHENDMRGKCTVGDRWSSQQGSKADYPEGDGNWANYNTFGSAEAATSDDYKNPGYYDIQAKDLGIWHVPNKSPMQHWRNSSLLRYRTDTGFLQTLGHNLFGIYQKYPVKYGEGKCWTDNGPVIPVVYDFGDAQKTASYYSPYGQREFTAGFVQFRVFNNERAANALCAGMRVTGCNTEHHCIGGGGYFPEASPQQCGDFSGFDWSGYGTHVGYS
modifications: single glycosylation site at N163
notes: Human intelectin-1 (ITLN1), natural missense variant rs2274907 (T allele) with aspartic acid at position 109, endogenous in ileal mucosa; Natural allele (rs2274907 T); also called DD genotype; D109-ITLN1; source: endogenous, ileal specimens of D109 homozygote individuals, in lysate
- stoichiometry N: 3 and 6
